The text below walks through data of PMC11331095, “Structural basis for DNA recognition by a viral genome-packaging machine”.

Data set [1] addresses HK97 small terminase (Escherichia coli bacteriophage HK97). As to the kind of experiment: cryo-EM structure; small terminase with 31 bp DNA (cos 7-37), 1:2 protein:DNA, 25 mM Tris-HCl pH 7.5, 200 mM NaCl, 10 mM MgCl2; complex purified on S200 10/30; 3.0 Å.
The target of data set [2] is HK97 small terminase Arg5 to alanine mutant (Escherichia coli bacteriophage HK97). As to the kind of experiment: SEC; mutant proteins on a Superdex S200 10/30 column in 25 mM Tris-HCl, pH 7.5, 1 M NaCl (SI Appendix, Fig. S12). (Size exclusion chromatography separates by hydrodynamic size, large species first.)
For data set [3], the target named is HK97 small terminase Arg7 to alanine mutant (Escherichia coli bacteriophage HK97). The description is as above.
Data set [4] addresses HK97 small terminase Arg107 to alanine mutant (Escherichia coli bacteriophage HK97). Described as above.
The target of data set [5] is HK97 small terminase Arg114 to alanine mutant (Escherichia coli bacteriophage HK97). The data set is described as above.
In data set [6] the target is HK97 small terminase Arg128 to alanine mutant (Escherichia coli bacteriophage HK97). The description is as above.
In data set [7] the target is HK97 small terminase Lys4 to alanine mutant (Escherichia coli bacteriophage HK97). Described as above.
Data set [8] deals with HK97 small terminase Lys100 to alanine mutant (Escherichia coli bacteriophage HK97). The data set is described as above.
In data set [9] the target is HK97 small terminase triple mutant (Lys4, Arg5 and Arg7 to alanine) (Escherichia coli bacteriophage HK97). The description is as above.
For data set [10], the target named is T1, small terminase WT (Escherichia coli bacteriophage HK97, UniProt Q9MBW4 1-161).
T1 sequence: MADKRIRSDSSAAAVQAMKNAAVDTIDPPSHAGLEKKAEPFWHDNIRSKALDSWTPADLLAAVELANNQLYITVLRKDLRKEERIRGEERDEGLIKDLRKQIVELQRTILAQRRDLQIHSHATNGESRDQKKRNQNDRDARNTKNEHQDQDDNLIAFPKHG
As to the kind of experiment: MST. The conditions noted are these: rough upper limit of Kapp; mixed specific and nonspecific binding; 10 mM MgCl2; EMSA: 25 mM Tris-HCl pH 7.5, 200 mM NaCl, 10 mM MgCl2, RT 2-3 h, gel at 4 C (DNA 2 uM boundary mapping, 0.5 uM DNA mutants, 20 nM Alexa647 or 40 nM Cy5 DNA) …. A general note: A gel shift assay detects complexes by their altered migration in electrophoresis.

The target of data set [11] is T1, small terminase WT. As to the kind of experiment: EMSA; EMSA: 25 mM Tris-HCl pH 7.5, 200 mM NaCl, 10 mM MgCl2, RT 2-3 h, gel at 4 C (DNA 2 uM boundary mapping, 0.5 uM DNA mutants, 20 nM Alexa647 or 40 nM Cy5 DNA); MST: same buffer + 0.005-0.01% Tween 20, 12 nM DNA, 20 C. The conditions noted are these: protein: recombinant; tags: His-SUMO tag removed; chain copies: 9.

For data set [12], the target named is T1, small terminase WT. As to the kind of experiment: EMSA; little influence on binding; EMSA: 25 mM Tris-HCl pH 7.5, 200 mM NaCl, 10 mM MgCl2, RT 2-3 h, gel at 4 C (DNA 2 uM boundary mapping, 0.5 uM DNA mutants, 20 nM Alexa647 or 40 nM Cy5 DNA); MST: same buffer + 0.005-0.01% Tween 20, 12 nM DNA, 20 C. The conditions noted are these: protein: recombinant; tags: His-SUMO tag removed; chain copies: 9.

For data set [13], the target named is T1, small terminase WT. As to the kind of experiment: cryoEM; 3.0 A; 28 of 31 bp modelled; DNA threaded through channel; EMSA: 25 mM Tris-HCl pH 7.5, 200 mM NaCl, 10 mM MgCl2, RT 2-3 h, gel at 4 C (DNA 2 uM boundary mapping, 0.5 uM DNA mutants, 20 nM Alexa647 or 40 nM Cy5 DNA); MST: same buffer + 0.005-0.01% Tween 20, 12 nM DNA, 20 C. As to conditions: protein: recombinant; tags: His-SUMO tag removed; chain copies: 9.

The target of data set [14] is T1, small terminase WT. As to the kind of experiment: EMSA; binding abolished; up to 1 uM protein; EMSA: 25 mM Tris-HCl pH 7.5, 200 mM NaCl, 10 mM MgCl2, RT 2-3 h, gel at 4 C (DNA 2 uM boundary mapping, 0.5 uM DNA mutants, 20 nM Alexa647 or 40 nM Cy5 DNA); MST: same buffer + 0.005-0.01% Tween 20, 12 nM DNA, 20 C. The conditions noted are these: protein: recombinant; tags: His-SUMO tag removed; chain copies: 9.

Data set [15] addresses T1, small terminase WT. As to the kind of experiment: EMSA; up to 1 uM protein; EMSA: 25 mM Tris-HCl pH 7.5, 200 mM NaCl, 10 mM MgCl2, RT 2-3 h, gel at 4 C (DNA 2 uM boundary mapping, 0.5 uM DNA mutants, 20 nM Alexa647 or 40 nM Cy5 DNA); MST: same buffer + 0.005-0.01% Tween 20, 12 nM DNA, 20 C. As to conditions: protein: recombinant; tags: His-SUMO tag removed; chain copies: 9.

Usually stoichiometry N stands for the number of molecules, sites or subunits per partner or assembly. On to HK97 small terminase, for which the stoichiometry N in [1] is 9. “HK97 small terminase Arg5 to alanine mutant (natural protein)” yielded a stoichiometry N in data set [2] of 9. On to “HK97 small terminase Arg7 to alanine mutant (natural protein)”, for which, in [3], the stoichiometry N came to 9. “HK97 small terminase Arg107 to alanine mutant (natural protein)” showed a stoichiometry N in [4] of 9.

In data set [5], “HK97 small terminase Arg114 to alanine mutant (natural protein)” yielded a stoichiometry N of 9.

In turn, “HK97 small terminase Arg128 to alanine mutant (natural protein)” gave a stoichiometry N in data set [6] of 9. The molecule “HK97 small terminase Lys4 to alanine mutant (natural protein)” had a stoichiometry N in data set [7] of 9. For “HK97 small terminase Lys100 to alanine mutant (natural protein)”, in [8], the stoichiometry N is 9. In data set [9], “HK97 small terminase triple mutant (Lys4, Arg5 and Arg7 to alanine) (natural protein)” had a stoichiometry N of 9. The Kd is the concentration at which binding is half-saturated. A lower Kd goes with tighter binding. cos -20-80 (100 bp): the Kd with small terminase WT [10] was below 100 nM.

B1: 25 bp cos oligo (dsDNA)
DNA 1: TAACGCTAACCCGATTTTTTTAGTT
DNA 2: AACTAAAAAAATCGGGTTAGCGTTA
For B1, in the data set with small terminase WT [11], the binding result is recorded as “binds”.

B2: positions 24-29 A:T swapped (dsDNA)
DNA 1: ATTTAACGCTAACCCGAAAAAAATAGTTTTA
DNA 2: TAAAACTATTTTTTTCGGGTTAGCGTTAAAT
Regarding B2, the binding result in the data set with small terminase WT [12] was “binds”.

B3: cos 7-37 (31 bp) (dsDNA)
DNA 1: ATTTAACGCTAACCCGATTTTTTTAGTTTTA
DNA 2: TAAAACTAAAAAAATCGGGTTAGCGTTAAAT
Turning to B3, the binding result with small terminase WT [13] is on record as “binds”.

B4: positions 26-27 G:C (dsDNA)
DNA 1: ATTTAACGCTAACCCGATTCCTTTAGTTTTA
DNA 2: TAAAACTAAAGGAATCGGGTTAGCGTTAAAT
Regarding B4, the binding result in the data set with small terminase WT [14] is reported as “no binding”.

B5: position 21 C:G to T:A (dsDNA)
DNA 1: ATTTAACGCTAACCTGATTTTTTTAGTTTTA
DNA 2: TAAAACTAAAAAAATCAGGTTAGCGTTAAAT
For B5, the binding result with small terminase WT [15] is listed as “no binding”.

B6: 21 bp cos oligo (dsDNA)
DNA 1: ACGCTAACCCGATTTTTTTAG
DNA 2: CTAAAAAAATCGGGTTAGCGT
Consider B6, for which the binding result with small terminase WT [11] is “binds”.
